Results reported in PMC6468249.
Like-named read-outs stand apart in the source and are kept apart here.

B1: 20 nt RNA probe (ssRNA)
RNA: AGAACCUGUUGAACAAAAGC
B2: 20 nt ssDNA probe (ssDNA)
DNA: AGAACCTGTTGAACAAAAGC

Legend:
mtSSB [1] = biological target: T1, mtSSB (Homo sapiens, UniProt Q04837 15-148); experiment: EMSA
T1 sequence: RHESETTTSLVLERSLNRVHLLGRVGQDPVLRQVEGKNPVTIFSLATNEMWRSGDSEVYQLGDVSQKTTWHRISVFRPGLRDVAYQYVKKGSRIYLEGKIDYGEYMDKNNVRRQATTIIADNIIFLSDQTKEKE

mtSSB [2] = biological target: T1, mtSSB; experiment: EMSA; remark: listed apart in the source

| Binder | binding result (mtSSB [1]) | binding result (mtSSB [2]) |
| --- | --- | --- |
| B1 | binds |  |
| B2 |  | binds |
